{
  "source": "paper PMC9457330",
  "about": "(Proceedings of the National Academy of Sciences of the …, 2022)",
  "target": "the molecule itself",
  "assay": "native gel or EMSA",
  "data": [
    {"protein": "SLC25A11 (endogenous, mouse) (natural protein, UniProt Q9CR62 1-314, looked up) MAATASPGAGRMDGKPRTSPKSVKFLFGGLAGMGATVFVQPLDLVKNRMQLSGEGAKTREYKTSFHALTSILKTEGLKGIYTGLSAGLLRQATYTTTRLGIYTVLFERLTGADGTPPGFLLKALIGMTAGATGAFVGTPAEVALIRMTADGRLPADQRRGYKNVFNALVRIAREEGVPTLWRGCIPTMARAVVVNAAQLASYSQSKQFLLDSGYFSDNILCHFCASMISGLVTTAASMPVDIVKTRIQNMRMIDGKPEYKNGLDVLLKVVRYEGFFSLWKGFTPYYARLGPHTVLTFIFLEQMNKAYKRLFLSG", "values": [
      {"measurement": "stoichiometry N", "value": 2}
    ]}
  ]
}
